Test results published in article PMC11718114 (Nature Communications, 2025).
Values belong to the binder of their own block, whether it stands above or below them.

What was measured:
Settings in all cases: both partners purified
[1] = target: T1, PI3Kα: p110α(2-1068) W1057A/I1058A/F1059A + p85(322-600) (human, UniProt P42336 2-1068; P27986 322-600, W1057A | I1058A | F1059A); test: ITC; GMPPNP-bound RAS (300–500 μM) in the syringe, PI3K isoform or PI3Kα-RBD (30–50 μM) in the cell; 25 °C; 20 mM HEPES pH 7.4, 150 mM NaCl, 5 mM MgCl2, 1 mM TCEP; one set of sites; duplicates
T1 construct: PIK3CA (p110α, catalytic subunit of PI3Kα), human, residues 2-1068; PIK3R1 (p85α regulatory subunit), human, residues 322-600 (nSH2-iSH2), untagged; also called PIK3CA(2-1068)W1057A/I1058A/F1059A + PIK3R1(322-600); p110α/p85; source: insect cells (baculovirus), co-expressed, purified (IMAC, TEV cleavage, second IMAC, anion exchange, SEC); not shown: His6, N-terminal, cleaved; MBP, N-terminal, …

[2] = target: T2, PI3Kα-RBD (PIK3CA-RBD(157-289)) (human, UniProt P42336 157-289); test: as above
T2 construct: also called p110α-RBD; p110α RBD; source: E. coli, purified (IMAC, TEV cleavage, second IMAC, SEC); not shown: His6, N-terminal, cleaved; MBP, N-terminal, cleaved

[3] = target: T3, PI3Kα-RBD, PIK3CA-RBD(157-289) (human, UniProt P42336 157-289); test: ITC; RAS GTPase (GMPPNP-bound, 300–500 μM) in the syringe, PI3K isoform or PI3Kα-RBD (30–50 μM) in the cell; 25 °C; 20 mM HEPES pH 7.4, 150 mM NaCl, 5 mM MgCl2, 1 mM TCEP; one set of sites; two replicates
T3 construct: also called PI3Ka-RBD; p110α-RBD; source: E. coli, purified (IMAC, TEV cleavage, second IMAC, SEC); not shown: His6, N-terminal, cleaved; MBP, N-terminal, cleaved

[4] = target: T4, PI3Kα: p110α(2-1068)W1057A/I1058A/F1059A + p85(322-600) (human, UniProt P42336 2-1068; P27986 322-600, W1057A | I1058A | F1059A); test: as above
T4 construct: human PIK3CA (p110α), residues 2-1068; human PIK3R1 (p85α), residues 322-600 (nSH2-iSH2), untagged; also called PI3Ka; PI3Kα (p110α + p85); source: insect cells (baculovirus), co-expressed, purified (IMAC, TEV cleavage, second IMAC, anion exchange, SEC); not shown: His6, N-terminal, cleaved; MBP, N-terminal, cleaved

binding result [1]: binds
binding result [2]: binds
B1: RRAS(22-192) (domain or fragment, human, UniProt P10301 22-192, looked up)
chain: GDPPPSETHKLVVVGGGGVGKSALTIQFIQSYFVSDYDPTIEDSYTKICSVDGIPARLDILDTAGQEEFGAMREQYMRAGHGFLLVFAINDRQSFNEVGKLFTQILRVKDRDDFPVVLVGNKADLESQRQVPRSEASAFGASHHVAYFEASAKLRLNVDEAFEQLVRAVRK
notes: source: E. coli, purified (IMAC, TEV cleavage, second IMAC, SEC); exchanged to GMPPNP; not shown: His6, N-terminal, cleaved; MBP, N-terminal, cleaved

Kd [3]: 4.9 µM
stoichiometry N [3]: 1.12 sites
Kd [4]: 2.1 µM
stoichiometry N [4]: 0.95 sites
B2: RRAS2(1-179)-Q36A, GMPPNP-bound (domain or fragment, human, UniProt P62070 1-179, looked up)
chain: MAAAGWRDGSGQEKYRLVVVGGGGVGKSALTIQFIASYFVTDYDPTIEDSYTKQCVIDDRAARLDILDTAGQEEFGAMREQYMRTGEGFLLVFSVTDRGSFEEIYKFQRQILRVKDRDEFPMILIGNKADLDHQRQVTQEEGQQLARQLKVTYMEASAKIRMNVDQAFHELVRVIRKFQ
notes: limits for the ITC are not separately stated; also called RRAS2-Q36A; source: E. coli, purified (IMAC, TEV cleavage, second IMAC, SEC); not shown: His6, N-terminal, cleaved; MBP, N-terminal, cleaved

fold increase in binding affinity against wild-type RRAS2 [2]: 2 fold
B3: RRAS2(1-179)-Q36A (domain or fragment, human, UniProt P62070 1-179, looked up)
chain: MAAAGWRDGSGQEKYRLVVVGGGGVGKSALTIQFIASYFVTDYDPTIEDSYTKQCVIDDRAARLDILDTAGQEEFGAMREQYMRTGEGFLLVFSVTDRGSFEEIYKFQRQILRVKDRDEFPMILIGNKADLDHQRQVTQEEGQQLARQLKVTYMEASAKIRMNVDQAFHELVRVIRKFQ
notes: RRAS2 (TC21), human, residues 1-179; Limits 1-179 are stated for the crystals; also called RRAS2-Q36A; source: E. coli, purified (IMAC, TEV cleavage, second IMAC, SEC); exchanged to GMPPNP; not shown: His6, N-terminal, cleaved; MBP, N-terminal, cleaved
